Laboratory results taken from patent US20100279930A1 (published 2010).
Like-named read-outs stand apart in the source and are kept apart here. No end group written: not given here.

Experiments:
human Y4 receptor [1] = molecular target: T1, human Y4 receptor (human, UniProt P50391 1-375); test: 125I-PP displacement
human Y4 receptor [2] = molecular target: T1, human Y4 receptor; test: 125I-PP displacement; remark: listed apart in the source

T1 sequence (P50391 whole entry): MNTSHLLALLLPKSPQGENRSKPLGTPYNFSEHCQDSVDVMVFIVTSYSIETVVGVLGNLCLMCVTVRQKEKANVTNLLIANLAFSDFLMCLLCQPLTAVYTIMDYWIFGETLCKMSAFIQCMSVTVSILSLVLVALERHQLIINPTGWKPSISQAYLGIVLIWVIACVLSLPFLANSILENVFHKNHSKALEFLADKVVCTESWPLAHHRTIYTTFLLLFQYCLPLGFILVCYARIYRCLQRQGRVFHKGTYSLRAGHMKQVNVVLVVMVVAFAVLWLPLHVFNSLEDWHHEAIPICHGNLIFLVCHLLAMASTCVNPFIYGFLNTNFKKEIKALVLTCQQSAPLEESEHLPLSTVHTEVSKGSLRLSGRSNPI

| Binder | IC50 (human Y4 receptor [1]) [nM] | IC50 (human Y4 receptor [2]) [nM] |
| --- | --- | --- |
| 4057260 (protein) CAPLEPEYPGDDATPQQMAKYAADLRRYINKLTRPRYCAPLEPEYPGDDATPQQMAKYAADLRRYINKLTRPRY | 0.209 |  |
| DAPLEPVYPGDNATPEQMARYAADLRRYINKLTRPRY [4057337] | 0.109 |  |
| PAPLEPVYPGDNATPEQMAKYAADLRRYINKLTRPRF [4057235] | 0.059 |  |
| AAPLEPHYPGDNATPEQLARYYSELRRYINKLTRPRY [4059969] |  | 0.05 |
| PAPLEPHYPGDNATPEQLARYYSELRRYINKLTRPRY [4059966] |  | 0.053 |
| AAPLEPHYPGDNATPEEMARYYSELRRYINKLTRPRY [4059965] |  | 0.083 |
| GAPLEPHYPGDNATPEQLARYYSELRRYINKLTRPRY [4059967] |  | 0.064 |
| AAPLEPVYPGDNATPEELARYAAELRRYINKLTRPRY [4060135] |  | 0.197 |
| GAPLEPEYPGDNATPEQKARYAAALRRYINHLTRPRY [4060130] |  | 0.072 |
| APLEPVYPGDNATPEQMARYAAELRRYINKLTRPRY [4057160] | 0.059 |  |
| EPLEPEYPGDDATPQQMARYAAELRRYINKLTRPRY [4057274] | 0.103 |  |
| GAPLEPVYPGDNATPEELARYAAELRRYINKLTRPRY [4060134] |  | 0.143 |
| HAPLEPVYPGDNATPEQMARYAAELRRYINKLTRPRY [4057228] | 0.068 |  |
| PAPLKPTYPGDNATPEQLAKYAAELRRYINKLTRPRY [4059864] |  | 0.07 |
| YAPLKPEYPGDNATPEQLAKYAAELRRYINKLTRPRY [4059856] |  | 0.08 |
| HAPLKPKAPGDNATPEQLAKYAAELRRYINKLTRPRY [4059861] |  | 0.1 |
| GAPLEPEAPGDNATPEQMAKYAAALRRYINKLTRPRY [4059977] |  | 0.095 |
| PAPLKPKAPGDNATPEQLAKYAAELRRYINKLTRPRY [4059862] |  | 0.071 |

| Binder | IC50 (human Y4 receptor [1]) [nM] | IC50 (human Y4 receptor [2]) [nM] |
| --- | --- | --- |
| GAPLEPVYPGDNATPEQMARYAADLRRYINKLTRPRY [4057336] | 0.09 |  |
| HAPLKPTYPGDNATPEQLAKYAAELRRYINKLTRPRY [4059863] |  | 0.068 |
| PAPLKPEYPGDNATPEQLAKYAAELRRYINKLTRPRY [4059859] |  | 0.108 |
| PAPLEPHFPGDNATPEEMAKYAAELRRYINKLTRPRY [4059940] |  | 0.115 |
| GAPLEPHYPGDNATPEEMAKYAAELRRYINKVTRPRY [4059947] |  | 0.066 |
| PAPLEPHAPGDNATPEEMAKYAAELRRYINKLTRPRY [4059938] |  | 0.128 |
| PAPLEPHYPGDNATPEEMAKYAAELRRYINKITRPRY [4059943] |  | 0.077 |
| DAPLEPEYPGDDATPEEMAKYAAELRRYINKLTRPRY [4059971] |  | 0.228 |
| PAPLEPHYPGDNATPEEMAKYAAELRRYLNKLTRPRY [4059951] |  | 0.093 |
| PAPLEPVYPGDNATPEQMAHYAAELRRYINKLTRPRY [4057152] | 0.141 |  |
| PAPLEPHYPGDNATPEEMAKYASELRRYINKLTRPRY [4059936] |  | 0.118 |
| PAPLEPEAPGDNATPEQMAKYAAALRRYINKLTRPRY [4059974] |  | 0.097 |
| GAPLEPHYPGDNATPEEMAKYAAELRRYINKITRPRY [4059942] |  | 0.073 |
| GAPLEPHYPGDNATPEEMAKYASELRRYINKLTRPRY [4059935] |  | 0.081 |
| GAPLEPHYPGDNATPEEMAKYATELRRYINKLTRPRY [4059932] |  | 0.085 |
| PAPLEPKYPGDNATPEELARYAAELRRYINKLTRPRY [4060138] |  | 0.136 |
| AAPLEPEAPGDNATPEQMAKYAAALRRYINKLTRPRY [4059976] |  | 0.122 |

The remaining lines, values ahead:

| IC50 (human Y4 receptor [1]) [nM] | IC50 (human Y4 receptor [2]) [nM] | Binder |
| --- | --- | --- |
|  | 0.067 | AAPLEPTYPGDNATPEQLARYYSELRRYINKLTRPRY [4060212] |
|  | 0.118 | PAPLEPTYPGDNATPEQLAKYYSELRRYINHLTRPRY [4060273] |
|  | 0.095 | DAPLEPVYPGDNATPEQMAKYYSELRRYINKLTRPRY [4060148] |
|  | 0.095 | GAPLEPTYPGDNATPEQLAKYYSELRRYINHLTRPRY [4060272] |
|  | 0.035 | AAPLEPVYPGDDATPQQMARYYSELRRYINKLTRPRY [4060214] |
|  | 0.077 | GAPLEPVYPGDNATPEQMAKYYSELRRYINKLTRPRY [4060147] |
|  | 0.075 | GAPLEPTYPGDNATPEQLARYYSELRRYINKLTRPRY [4060211] |
|  | 0.09 | GAPLEPTYPGDNATPEQLAKYAAELRRYINKLTRPRY [4060207] |
|  | 0.073 | GAPLEPTYPGDNATPEQKAKYAAELRRYINKLTRPRY [4060204] |
|  | 0.061 | GAPLEPEYPGDNATPEQMARYAASLRRYINKLTRPRY [4060202] |
|  | 0.126 | PAPLEPTYPGDDATPEQLAKYAAELRRYINKLTRPRY [4060208] |
|  | 0.143 | GAPLEPKYPGDDATPEELAKYAAELRRYINKLTRPRY [4060142] |
|  | 0.106 | AAPLEPEYPGDNATPEQMAKYAASLRRYINKLTRPRY [4060146] |
|  | 0.128 | GAPLEPEYPGDNATPEQKAKYAAALRRYINHLTRPRY [4060274] |
|  | 0.09 | GAPLEPHFPGDNATPEEMAKYAAELRRYINKLTRPRY (ends and bridges not checked) [compound of SEQ ID NO:1092] |
|  | 0.067 | PAPLEPTYPGDNATPEQKAKYAAELRRYINKLTRPRY [4060203] |
|  | 0.121 | PAPLEPHYPGDNATPEELARYAAELRRYINKLTRPRY [4060139] |
|  | 0.112 | PAPLEPEYPGDDATPEQMAKYAAELRRYINKLTRPRY [4060205] |
|  | 0.209 | GAPLEPHAPGDNATPEEMAKYAAELRRYINKLTRPRY (ends and bridges not checked) [compound of SEQ ID NO:1090 (code 4059937)] |
|  | 0.095 | PAPLEPRYPGDNATPEEMAKYAAELRRYINKLTRPRY [4060143] |
|  | 0.173 | DAPLEPRYPGDNATPEEMAKYAAELRRYINKLTRPRY [4060145] |
|  | 0.151 | PAPLEPTYPGDNATPEELARYAAELRRYINKLTRPRY [4060141] |
|  | 0.101 | GAPLEPRYPGDNATPEEMAKYAAELRRYINKLTRPRY [4060144] |
